Key:
Details in all cases: both partners purified
[1] = molecular target: T1, ubiquitin-agarose (UniProt P0CG47 1-76); experiment: pull-down; 25 μg recombinant UBXN7 variant incubated for one hour with 10 μl NEDD8- or ubiquitin-agarose in buffer D (50 mM HEPES/KOH pH 7.5, 60 mM KOAc, 5 mM MgCl2, 5% glycerol, 0.1% Triton X-100)
T1 construct: ubiquitin coupled to agarose beads; source: bought: BostonBiochem (ubiquitin-agarose)

[2] = molecular target: T2, Flag-CUL1(324-776)/GST-HA-RBX1 complex, neddylated in vitro (mixture of neddylated and non-neddylated) (UniProt Q13616 324-776; P62877 1-108; Q15843 1-76, NEDD8 conjugated in vitro (mixture of neddylated and non-neddylated); site not stated); experiment: pull-down; Flag-CUL1(324-776)/GST-HA-RBX1 (about 1 μg) immobilized on GSH-sepharose, neddylated or mock-treated, incubated for one hour with 3 μg Flag-UBXN7 variant in buffer D; naked beads as control
T2 construct: RBX1; NEDD8 (BostonBiochem) conjugated to the CUL1 fragment in vitro; also called neddylated CUL1 fragment; source: E. coli BL21, co-expressed, immobilized from lysate on GSH-sepharose, neddylated in vitro on the beads; copies: + +
T2 sequence (Q13616 324-776, chain 1 of 3): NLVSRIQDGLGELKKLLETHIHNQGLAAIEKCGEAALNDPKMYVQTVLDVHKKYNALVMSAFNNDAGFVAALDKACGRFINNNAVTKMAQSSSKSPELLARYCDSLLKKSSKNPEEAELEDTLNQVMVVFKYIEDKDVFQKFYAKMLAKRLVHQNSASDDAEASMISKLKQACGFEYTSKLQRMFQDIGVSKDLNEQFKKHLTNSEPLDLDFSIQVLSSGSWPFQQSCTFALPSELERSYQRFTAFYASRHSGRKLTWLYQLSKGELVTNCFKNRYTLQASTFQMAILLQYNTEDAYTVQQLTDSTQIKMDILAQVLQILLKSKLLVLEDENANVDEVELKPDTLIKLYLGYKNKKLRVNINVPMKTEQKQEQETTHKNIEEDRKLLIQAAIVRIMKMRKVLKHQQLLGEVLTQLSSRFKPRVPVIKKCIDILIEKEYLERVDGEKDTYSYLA
T2 sequence (P62877 whole entry, chain 2 of 3, the tested form may be a part): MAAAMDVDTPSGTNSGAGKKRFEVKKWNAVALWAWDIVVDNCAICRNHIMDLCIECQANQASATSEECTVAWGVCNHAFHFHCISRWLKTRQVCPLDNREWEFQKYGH
T2 sequence (Q15843 1-76, chain 3 of 3): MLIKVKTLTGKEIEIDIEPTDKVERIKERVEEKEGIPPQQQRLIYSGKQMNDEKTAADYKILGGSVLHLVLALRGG

[3] = molecular target: T3, Flag-CUL1(324-776)/GST-HA-RBX1 complex, non-neddylated (mock neddylation) (UniProt Q13616 324-776; P62877 1-108); experiment: as above
T3 construct: RBX1; also called non-neddylated CUL1 fragment; CUL1/RBX1 complex; source: E. coli BL21, co-expressed, immobilized from lysate on GSH-sepharose
T3 sequence (Q13616 324-776, chain 1 of 2): as the sequence (Q13616 324-776, chain 1 of 3) above
T3 sequence (P62877 whole entry, chain 2 of 2, the tested form may be a part): as the sequence (P62877 whole entry, chain 2 of 3, the tested form may be a part) above

[4] = molecular target: T4, CUL2/RBX1, neddylated in vitro (partially neddylated full-length CUL2) (human | , UniProt Q13617-1 1-745; P62877 1-108; Q15843 1-76, NEDD8 conjugated in vitro on only a fraction of CUL2; Lys689 is the site of NEDD8-conjugation in human CUL2); experiment: co-IP; 1.5 μg CUL2/RBX1 (unmodified or neddylated in vitro) pre-incubated with 1.5 μg bacterially expressed Flag-UBXN7 for 30 minutes, then one hour with anti-Flag beads in buffer D
T4 construct: CUL2, human, full-length; RBX1, amplified from EST IMAGE 3138751; NEDD8 (BostonBiochem) conjugated to CUL2 in vitro; RBX1 substoichiometric; also called neddylated CUL2; CUL2 that was in vitro neddylated; copies: + +
T4 sequence (Q13617 whole entry, chain 1 of 3): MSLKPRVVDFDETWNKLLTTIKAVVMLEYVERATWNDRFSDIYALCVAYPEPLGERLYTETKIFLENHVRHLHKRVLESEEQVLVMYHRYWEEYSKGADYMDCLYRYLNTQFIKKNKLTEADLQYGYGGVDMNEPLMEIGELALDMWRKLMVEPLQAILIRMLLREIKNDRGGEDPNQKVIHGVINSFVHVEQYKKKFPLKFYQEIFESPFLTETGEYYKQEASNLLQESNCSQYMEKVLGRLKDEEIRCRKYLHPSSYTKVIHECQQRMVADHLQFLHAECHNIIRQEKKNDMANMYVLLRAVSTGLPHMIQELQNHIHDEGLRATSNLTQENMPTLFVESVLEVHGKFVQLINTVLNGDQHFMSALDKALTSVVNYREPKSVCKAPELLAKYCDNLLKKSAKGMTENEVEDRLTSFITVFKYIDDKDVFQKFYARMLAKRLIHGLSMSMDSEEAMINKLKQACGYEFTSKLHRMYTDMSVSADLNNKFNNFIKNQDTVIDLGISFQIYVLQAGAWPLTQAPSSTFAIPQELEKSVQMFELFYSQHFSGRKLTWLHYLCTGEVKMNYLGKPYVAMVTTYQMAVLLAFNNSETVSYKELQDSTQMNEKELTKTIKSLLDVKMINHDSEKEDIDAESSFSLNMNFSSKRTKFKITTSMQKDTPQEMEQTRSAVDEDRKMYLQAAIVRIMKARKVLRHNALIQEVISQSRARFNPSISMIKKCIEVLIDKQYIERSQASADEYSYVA
T4 sequence (P62877 whole entry, chain 2 of 3): as the sequence (P62877 whole entry, chain 2 of 3, the tested form may be a part) above
T4 sequence (Q15843 1-76, chain 3 of 3): as the sequence (Q15843 1-76, chain 3 of 3) above

[5] = molecular target: T5, CUL2/RBX1, unmodified (full-length CUL2, GST cleaved off) (human | , UniProt Q13617-1 1-745; P62877 1-108); experiment: as above
T5 construct: CUL2, human, full-length; RBX1, amplified from EST IMAGE 3138751; also called unmodified CUL2; non-neddylated CUL2; source: Spodoptera frugiperda 21 cells (baculovirus), purified (GSH-Sepharose, GST cleaved with PreScission protease)
T5 sequence (Q13617 whole entry, chain 1 of 2): as the sequence (Q13617 whole entry, chain 1 of 3) above
T5 sequence (P62877 whole entry, chain 2 of 2): as the sequence (P62877 whole entry, chain 2 of 3, the tested form may be a part) above

Measured: binding result

B1: bacterially expressed Flag-UBXN7 (wild-type, full length) (natural protein, human, UniProt O94888 1-489, looked up)
chain: MAAHGGSAASSALKGLIQQFTTITGASESVGKHMLEACNNNLEMAVTMFLDGGGIAEEPSTSSASVSTVRPHTEEEVRAPIPQKQEILVEPEPLFGAPKRRRPARSIFDGFRDFQTETIRQEQELRNGGAIDKKLTTLADLFRPPIDLMHKGSFETAKECGQMQNKWLMINIQNVQDFACQCLNRDVWSNEAVKNIIREHFIFWQVYHDSEEGQRYIQFYKLGDFPYVSILDPRTGQKLVEWHQLDVSSFLDQVTGFLGEHGQLDGLSSSPPKKCARSESLIDASEDSQLEAAIRASLQETHFDSTQTKQDSRSDEESESELFSGSEEFISVCGSDEEEEVENLAKSRKSPHKDLGHRKEENRRPLTEPPVRTDPGTATNHQGLPAVDSEILEMPPEKADGVVEGIDVNGPKAQLMLRYPDGKREQITLPEQAKLLALVKHVQSKGYPNERFELLTNFPRRKLSHLDYDITLQEAGLCPQETVFVQERN
notes: UBXN7, human, full length, in a modified pGEX6P-1 vector; also called wild-type UBXN7; recombinant UBXN7; source: E. coli BL21 DE3, purified (GSH-sepharose, TEV cleavage, Superdex 75)
binds: [1] | [2] | [3] | [4] | [5]

From PMC3349548, “UBXN7 docks on neddylated cullin complexes using its UIM motif and causes HIF1α accumulation” (BMC Biology, 2012)
